Laboratory results taken from the supplement of paper PMC9170038.

The sequences below were run on K4 kissing-loop RNA reporter (assay: apparent KD of K4 kissing-loop reporter; higher = weaker reporter binding). Conditions: Eterna round: R107; input ligand: arginine 13.2 mM.
Description: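 RNA-MaP round R107: designed RNA switches with theophylline, tryptophan, arginine or FMN aptamers are transcribed on-chip within common flanks. They are titrated with a labelled K4 kissing-loop RNA reporter in RNA-MaP buffer (100 mM Tris pH 7.5, 80 mM KCl, 4 mM MgCl2), without ligand or with the indicated ligand. Median apparent KD per design.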
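Also: bound reporter read as fluorescence of individual clusters on recovered sequencing chips by microscopy, with normalized cluster intensities fitted with a binding model.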

Sequence | apparent KD of K4 kissing-loop reporter [nM]
CCUAUCUCAUACGAUACCAGUCAAUGAUCUUUGAUCAAUGCCAUCACCGAGUGAUGUUCGGACCCUUGGCAGCGUAUGAGAUGGG [whbob_Ex_Theo_B_sa104] | 203
GGACUACUAUGUCCCAUACAAACAAGAGAUACCAGCCAUCAUAGAGGCCCUUGGCAGCUCAUAUAAUCCAGUGAUGUUGGAUUUC [Beveus] | 193
GGUGACGACCAGAGGUGAUGUAUAGUAUCGCGAGGACCGGUACGGCCGCCACUCGUGAAGAGAAAGGAGUGAUGUUCCGUAAUGG [Kazoo C9] | 217
UUUUUAUUCAGUGAUGUUGAAUUUAUAUCAGAGGAUAUGCAUAAAAGCAGAAGGCUGAAAUACUAUACUUUAAUAAAUUAUAUUU [JR_SSFMNA_Sub017] | 326
GCUAUGGUAGGAAGGAGCGCUGCCUUGUUUUUACGAGUGAUGUUCGGAAGCAGGGCGUUAAAGCAGGUAGGUCGCCUACUAUAGC [Arginine B K4 22] | 135
UCCUACGAGGUAACGUGGAUAUCUCGUUGCAAGGAUAUCUGGAAACAGAGAAGGUGCUACAUUAUCGGCAGUGAUGUUGCUGACC | 655
AAAGAUGCGUCGGCCGCCACUGUUGCCAGUGAUGUUGGCAUGUAGAUGCAGUGAUGUUGCGUUUUCAGGACCGGGACGUAAGAUG [5th] | 253
GGCGUCAAACCAGAACUAGUGAUGUUGGUUCGAGGACCGGUACGGCCGCCACUCGAUCUCUUGGUCCAUCGCGGAAGGGCAGCGG [theeternabot_exclusion_KL_Trp_A_29] | 369
UUUGUAUAGGGAAGGAGCGUGAAUGAUAAAGAAUAUAGUGAUGUUAUAUAGAAGAAAGAAUCACAGGUAGGUCGCCCGGAGGAGG [SSArgB.H] | 491
AGUGCCGAGUGUGAUACCAGCUUCAUGCAGUGAUGUUGCACACGAGUGAUGUUCGUCCGAGGCCCUUGGCAGCGCAGUCGCUCGA [Same State Theophylline B Gf 30] | 807
UGUGAUGUUGUGAUGUUUAGUGUUGUUGGGCAGGAUAUUGUAGAGGCGAGAAGGGCUAGUGUGAUGUAUGAGUGAUGUUUGUAGU [kkollmullin] | 111
UGUCAUUGGUCUGAUACCAGAAGAAAUCUGGAGUGAUGUUCCAAGUCGACAAAAUGUCGCUUCCCUUGGCAGCAGACCGAUGACU [TheoBS 23 #SwitchBubble 13 #StaticStem] | 331
GUUACGCAUGGAAGGAGCGCUCUCAUAUUUAAUAACACAGUGAUGUUGUGAAUUUAUAUAAAGCAGGUAGGUCGCCAUGUGUAAC [Ex Arginine B K4 6] | 281
GGUAUCUAUACAGAUACCAGUCGUACAGCACCAUUACAGGUUAGUGAUGUUAACCUGUACGACCCUUGGCAGCUGUAUUAUAAUA [#15 K4 Theophylline B Exclusion] | 88.7
UGACUACAUAAGGAAUAAUCCUAGUGAUGUUAGGAUAUGCUGAUAAGCAGAAGGAACGGAGAUCGAAGGAUCUCAUAUGUAGUCU [whbob_Ex_FMNA__2th194] | 101
GUGCGCGGUGCGGCCGCCACUCGCAUGAGAGUGAUGUUCUCGGGACGGACGGAAGUCCGUCAUGUGAGGACCGGGCAUGGCUGCG [#2 Same State - Tryptophan B Attempt #10 (HarryS)] | 344

Sequence | apparent KD of K4 kissing-loop reporter [nM]
UACUUAUAUAUCAACUUAAAUUAUUCAGAAGGAGCGUGAUCAUUCACAGGUAGGUCGCUGAACUAGUGAUGUUAGUUUUAAUUUU [JR_Nu_ExcArginiA_Sub023] | 146
GAGAUAGAGGCGGCCGCCACUAGUGAUGUUAGUGAUGUUAGAUAGAGAAUAUAACAGGGAUUAGAUAGGACCGGGCCAGAUGGAG ['lljullin] | 104
AGUAUAGAGUCGGCCGCCACUGGUUUUAUGUGUGUCAAAUCUGGAUCAAAGUGAUGUUUUGAGACUAGGACCGGGACCAUUGUUA [#06 K4 Tryptophan B Exclusion] | 139
AGUACAGACACGGCCGCCACUCAGAAGAAGACAGUAGUGAUGUUACUGAUGGUGAGAAUAAUAAAGAGGACCGGGUGUUGUGCAA [#04 K4 Tryptophan B Same State] | 202
CCUAUCUCAUACGAUACCAGUGAAUUUAUGUUUAUUAGCAGUGAUGUUGCGUUCCAAGUACACCCUUGGCAGCGUAUGGGAUAGG [Ex Theophylline B K4 24] | 168
UAGUCCGAGUGAUGGUCAUCACGUGGCGGGCGAGGACCGGUACGGCCGCCACUCGACUUUGCAGUGAUGUUGCAAACCGGACAAU [Exclusion - Tryptophan A (Freestyle 21)] | 185
GUCCACACUGCAGGAUAUGGAGGUAUAGCGAGGGAGUGUGGAAGCACACCUCUGGCAGUGAUGUUGCCAGAAGGGCGGUGCGGCG [Masodionra] | 103
GAGAGCCCUGGAGGAUAUGAGUCUAGUGAUGUUAGGCGGUCCAUGCGCGUGGCGCGUUAUGCCCUUUUAGAAGGCCAGGGCUCUC [#2 Exclusion - FMN B Attempt #18 (HarryS)] | 68.5
UUCUACGUGCAAGGAUAUCCAUACGCUGCUAAGCGGGUAGCGAUAUAUGGAGUGAUGUUCCAUGUAGGAGAAGGUGCACUGUCCU [Rieser] | 295
AAGGUUCGUGGAAGGAGCGCCCGUGCGACUCGUUCACUAAGUGAAGUCCGAGUGAUGUUCGGGCAGGUAGGUCGCCACGGGCAAA [Atonenge] | 133
UAAUAAAUUCCAGCUGUAUCACUCUUCGAAGGAGCGGACGAAAGUCCAGGUAGGUCGCGAAGAGUGAUGUUCUUUGCGGCGCUGG [Omei KL Arginine A Exc A v6] | 68.4
CCGUGGCCGACGGCCGCCACUCUUACCAUCCAGCGGAGUGAUGUUCCGCCCGAGUGAUGUUCGGAGAGGACCGGGUCUGUUGUAA [Exclusion Tryptophan B GF30] | 103
CCAGGAUGAUGAGGAUGAUAAAUUACUGAAGGAGCGCAUAUGGUUGCAGGUAGGUCGCGGUGAAUAAGUAUAGUGAUGUUAUGCC [SSArgA.Y] | 612
UUCUAACACACCGAUACCAGAGCCCAGUGAUGUUGGGCCUAGGUCGGAUGCUCACUGACGCUCCCUUGGCAGCGGUGGGCUAACC [Arreisve] | 112
AAUACGAAGCAGUGAUGUUGCUUAUGAGAAGGAGCGCACGAAAGUGCAGGUAGGUCGCUCAGCCAAGUGGACGAAAACGUCCACA [whbob_SS_Arginine_A_sa108] | 116
AGCAGCAAAUCCUAGUGAUGUUAGGAUAUGUAGGAUAUCGGGAUACCGAGAAGGACAGAAGGAGGAGUGAUGUUCCUAAGCUGCA [FmnAX 24 #DoubleAptamer #DoubleK4 #SwitchBubble] | 112

Same assay, conditions: Eterna round: R107; input ligand: none

Sequence | apparent KD of K4 kissing-loop reporter [nM]
UCUGUUUCGAUGGAUACCAGUCGGCGAAUCACAGCUAUUAGCCUAGUGAUGUUAGGAUCGGACCCUUGGCAGCCAAUGGAUGCGG [theeternabot_sameState_KL_Theo_B_14] | 1240
AAGGGCGGAACUUCCUCGCCGGAUAGAGAUACCAGCCCAGCAAAGGGCCCUUGGCAGCUCACUGACCUCAGUGAUGUUGAGGUUC [Riesrevere] | 301
GUCGGCCGCGCGCAAGCGCGGCCGGCCGAUACCAGCGCGCCGGUGCGCCCUUGGCAGCGGCACCGAGUGAUGUUCGGUCAGACGA [#2 Same State - Theophylline A Attempt #6 (HarryS)] | 308
UGCGCUAUGUCCUAAAAUGUCCUCCGGGAUACCAGAGUCUUUUUAUUCCCUUGGCAGCUUGAGUGAUGUUUGAUGCCGUUCUUGU [nnbvmullin] | 551
CCGGGCGGCCGAAGGAGCGGGCGGACCCGAGUGAUGUUCGGGUGGACCGUGAGGUCCGGUGCCCAGGUAGGUCGCGGUUCCGUCC [#2 Same State - Arginine B Attempt #6 (HarryS)] | 159
GGAUAGGACAGAGGAUAUGGUAGCUAGGCAAGACAAAAGUCUUGUCUAGCAAUGAGGAGUGAUGUUCCAGAAGGCUGUCCUAUCG [FmnBX 4 - #SwitchBubble #StaticStem] | 442
UGAUUAAGCAGUGAUGUUGCAAGUAAUGAUACCAGUUAAGAAGAGAACCCUUGGCAGCAUAAAGUGCGCUCUGAUGAGUGUGCUU [whbob_SS_Theo_A_w53] | 123
GGGAGAAGUGCGGCCGCCACUGAGAAAGAAGAAGAAUAUAGUGAUGUUAUAUAGGAAAGGAAGAACAGGACCGGGCAUAAGAGGG [SSTryptB.A] | 126
UAGGAGUGAUGUUCCAUGUCUUGAGCCGAAGGAGCGCCUUUCUAGGCAGGUAGGUCGCGGCAGAAGGUACCAGUGAUGUUGGAAA [Same State Arginine A GF8] | 372
GUAUCGCUAGGAGGAUAUUUCGUUUUUCAUAGCAAUGGCUGUGCGGAGUGAUGUUCCGAUUUACCGGAAGAAGGCCUAGUGAUAC [FMN B 27] | 180
CCUAUCUCAUACGAUACCAGUCAAUGAUCUUUGAUCAAUGCCAUCACCGAGUGAUGUUCGGACCCUUGGCAGCGUAUGAGAUGGG [whbob_Ex_Theo_B_sa104] | 255
GGACUACUAUGUCCCAUACAAACAAGAGAUACCAGCCAUCAUAGAGGCCCUUGGCAGCUCAUAUAAUCCAGUGAUGUUGGAUUUC [Beveus] | 163
GGUGACGACCAGAGGUGAUGUAUAGUAUCGCGAGGACCGGUACGGCCGCCACUCGUGAAGAGAAAGGAGUGAUGUUCCGUAAUGG [Kazoo C9] | 289
UUUUUAUUCAGUGAUGUUGAAUUUAUAUCAGAGGAUAUGCAUAAAAGCAGAAGGCUGAAAUACUAUACUUUAAUAAAUUAUAUUU [JR_SSFMNA_Sub017] | 320
GCUAUGGUAGGAAGGAGCGCUGCCUUGUUUUUACGAGUGAUGUUCGGAAGCAGGGCGUUAAAGCAGGUAGGUCGCCUACUAUAGC [Arginine B K4 22] | 152
UCCUACGAGGUAACGUGGAUAUCUCGUUGCAAGGAUAUCUGGAAACAGAGAAGGUGCUACAUUAUCGGCAGUGAUGUUGCUGACC | 1010
AAAGAUGCGUCGGCCGCCACUGUUGCCAGUGAUGUUGGCAUGUAGAUGCAGUGAUGUUGCGUUUUCAGGACCGGGACGUAAGAUG [5th] | 302
GGCGUCAAACCAGAACUAGUGAUGUUGGUUCGAGGACCGGUACGGCCGCCACUCGAUCUCUUGGUCCAUCGCGGAAGGGCAGCGG [theeternabot_exclusion_KL_Trp_A_29] | 532
UUUGUAUAGGGAAGGAGCGUGAAUGAUAAAGAAUAUAGUGAUGUUAUAUAGAAGAAAGAAUCACAGGUAGGUCGCCCGGAGGAGG [SSArgB.H] | 552
AGUGCCGAGUGUGAUACCAGCUUCAUGCAGUGAUGUUGCACACGAGUGAUGUUCGUCCGAGGCCCUUGGCAGCGCAGUCGCUCGA [Same State Theophylline B Gf 30] | 885
UGUGAUGUUGUGAUGUUUAGUGUUGUUGGGCAGGAUAUUGUAGAGGCGAGAAGGGCUAGUGUGAUGUAUGAGUGAUGUUUGUAGU [kkollmullin] | 246
